Data on two molecules can be found in article PMC12783888.

For test [1], the target named is SplA allelic variant A4 (Staphylococcus aureus) (UniProt Q2FFS9).
In test [2] the target is SplA allelic variant A6 (Staphylococcus aureus) (UniProt Q2FFS9).
In test [3] the target is SplA allelic variant A5 (Staphylococcus aureus) (UniProt Q2FFS9).
The target in test [4] is SplA allelic variant A1 (Staphylococcus aureus) (UniProt Q2FFS9).
Test [5] concerns the target T1, SplA wildtype (S. aureus strain USA300 variant) (Staphylococcus aureus strain USA300) (UniProt Q2FFS9).
T1 sequence: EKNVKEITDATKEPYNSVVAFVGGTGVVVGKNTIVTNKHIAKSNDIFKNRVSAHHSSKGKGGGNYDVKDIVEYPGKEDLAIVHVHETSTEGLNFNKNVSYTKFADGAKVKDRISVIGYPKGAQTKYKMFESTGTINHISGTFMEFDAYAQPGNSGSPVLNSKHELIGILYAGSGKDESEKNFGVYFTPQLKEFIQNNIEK

In test [6] the target is SplA allelic variant A3 (Staphylococcus aureus) (UniProt Q2FFS9).

* marks the point of attachment. AMC = Cc1cc(=O)oc2cc(N*)ccc12

With Ac-Tyr-Leu-Tyr-{AMC}, the KM of Michaelis-Menten kinetics, cleavage of the fluorogenic substrate (AMC release) is 65 µM in test [1]; 109 µM in test [2]; 35 µM in test [3]; 54 µM in test [4]; 49 µM in test [5]; 39 µM in test [6].

B1: Ac-VWLY-AMC (peptide)
peptide: Ac-VWLY-{AMC}
SMILES: CC(=O)N[C@H](C(=O)N[C@@H](Cc1c[nH]c2ccccc12)C(=O)N[C@@H](CC(C)C)C(=O)N[C@@H](Cc1ccc(O)cc1)C(=O)Nc1ccc2c(C)cc(=O)oc2c1)C(C)C
In the case of B1, the KM of Michaelis-Menten kinetics, cleavage of the fluorogenic substrate (AMC release) in test [1] was 23 µM; in test [2], 19 µM; in test [3], 13 µM; in test [4], 26 µM; in test [5], 11 µM; in test [6], 11 µM.
